A word on the Kd: it is the constant that tells how readily two partners part at equilibrium. Low values mean a tighter complex, high ones a looser complex.

The test has as its target His6-tagged WT-αSyn (human, UniProt P37840 1-140). In words: BLI. Background: BLI is a label-free optical method that tracks binding on a fibre tip over time.

B1: E234G/H363A-HYPE (enzyme)
chain: GKLEARAALNQALEMKRQGKREKAQKLFMHALKMDPDFVDALTEFGIFSEEDKDIIQADYLYTRALTISPYHEKALVNRDRTLPLVEEIDQRYFSIIDSKVKKVMSIPKGNSALRRVMEETYYHHIYHTVAIGGNTLTLSEIRHILETRYAVPGKSLEEQNEVIGMHAAMKYINTTLVSRIGSVTISDVLEIHRRVLGYVDPVEAGRFRTTQVLVGHHIPPHPQDVEKQMQEFVQWLNSEEAMNLHPVEFAALAHYKLVYIAPFIDGNGRTSRLLMNLILMQAGYPPITIRKEQRSDYYHVLEAANEGDVRPFIRFIAKCTETTLDTLLFATTEYSVALPEAQPNHSGFKETLPVKP
With B1, binding was put at a Kd of 15.3 µM.

The values above are taken from paper PMC6554060 (Journal of molecular biology, 2019).
